In CN113321729A (DONGDA BIOTECHNOLOGY SUZHOU CO LTD, dated 2021):

T1: 携带组氨酸标签的人IL-12(IL-12-His) (human, UniProt P29459 23-219; P29460 23-328)
T1 construct: Recombinant His-tagged human IL-12 made in mammalian cells; Coated on the plate in the ELISA; also called IL-12蛋白; biotin标记的IL-12-His
T1 sequence (looked up) 1: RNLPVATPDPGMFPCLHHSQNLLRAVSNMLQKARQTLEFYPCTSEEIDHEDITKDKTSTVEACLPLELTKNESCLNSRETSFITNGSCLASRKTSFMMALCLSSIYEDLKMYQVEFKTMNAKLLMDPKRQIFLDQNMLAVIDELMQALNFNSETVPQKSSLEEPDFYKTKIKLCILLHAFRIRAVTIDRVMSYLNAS
T1 sequence (looked up) 2: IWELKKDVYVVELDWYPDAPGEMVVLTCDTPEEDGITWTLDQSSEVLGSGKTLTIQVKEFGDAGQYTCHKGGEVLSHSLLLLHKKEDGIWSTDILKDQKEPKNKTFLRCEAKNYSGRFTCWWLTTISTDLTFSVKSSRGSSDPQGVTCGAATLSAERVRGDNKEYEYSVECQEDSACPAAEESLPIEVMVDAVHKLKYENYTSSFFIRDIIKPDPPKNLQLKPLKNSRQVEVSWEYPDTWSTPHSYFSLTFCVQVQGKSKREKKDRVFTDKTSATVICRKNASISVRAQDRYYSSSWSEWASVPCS

B1: hu11B4 (antibody, V domains shown)
VH: QVQLVQSGAEVKKPGASVKVSCKASGYAFTDYKMHWVRQAPGQRLEWIGHIYTYNGGADYNQKFKNRATLTVDISASTAYMELSSLRSEDTAVYYCATSGPFAYWGQGTLVTVSS
VL: EIVMTQSPATLSVSPGERATLSCKASQNVGTNVAWYQQKPGQAPRALIYSASKRFSGIPARFSGSGSGTEFTLTISSLQSEDFAVYYCLQYNNFPFTFGQGTKLEIK
notes: also called 11B4人源化抗体; 人源化抗体11B4
B2: 1B6 (antibody, V domains shown)
VH: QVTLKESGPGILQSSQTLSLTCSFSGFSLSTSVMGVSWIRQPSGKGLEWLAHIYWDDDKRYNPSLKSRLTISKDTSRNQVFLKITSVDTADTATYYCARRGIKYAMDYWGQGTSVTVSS
VL: NIVMTQTPKFLLVSAGDRVTITCKASQSVSNDVAWYQQKPGQSPKLLIYYASNRYTGVPDRFTGSGYGTDFTFTISTVQAEDLAVYFCQQDYTSPWTFGGGTKLEIK
notes: Mouse hybridoma antibody purified on Protein A; also called IL-12杂交瘤抗体
B3: 2A3 (antibody, V domains shown)
VH: EVQLQQSGAELVKPGASVKLSCTASGFNIKDTYMHWLKQRPEQGLEWIGKIDPANGNTKYDPKFQGKATITADTSSNTAYLQLSSLTSEDTAVYYCSRRFYDSGFYYYFYIWGAGTTVTVSS
VL: NIMMTQSPSSLAVSAGEKVTMYCKSSQSVLYSSNQKNYLAWYQQKPGQSPKLLISWASTRESGVPDRFTGSGSGTDFTLTISSVQAEDLAVYYCHQYLSSLTFGAGTKLELK
notes: as for B2
B4: 9E2 (antibody, V domains shown)
VH: EVQLQQSGAELVRPGASVKLSCTASGVNIKDYYMHWVKQRPEKGLEWIGMIDPEDGDTEYAPRFQAKATMTADTSSNTAYLQLNSLTSEDTAVYYCTITTVVRYFDVWGTGTTVRVSS
VL: DLVLSQSPATLSVTPGDSVSLSCRASQSISINLHWYQQKSHESPRLLIKYASQSISGIPSRFSGSGSGTDFTLSINSVETEDFGMYFCQQSNSWPFTFGGGTKLEIK
notes: as for B2
B5: 19A4 (antibody, V domains shown)
VH: EVQLVESGGGLVKPGGSLQVSCAASGFSFSSYGMSWVRQTPDKRLEWVATIGSGGLYTYSPDTVKGRFSISRDDAKNTLYLQMNSLTSEDTAMYYCATSGPFAYWGQGTLVTVSA
VL: DIKMTQSPSSMYASLGERVTITCKASQDINRNLNWFQQKPGNSPKTLIIRTNRLVDGVPSRFSGSGSGQVYSLTVSSLEFGDMGIYFCLQFDEFPWTFGGGTTLEIK
notes: as for B2
B6: hu2A3 (antibody, V domains shown)
VH: QVQLVQSGAEVKKPGASVKVSCKASGFNIKDTYMHWVRQAPGQRLEWIGKIDPANGNTKYDPKFQGRATITADTSASTAYMELSSLRSEDTAVYYCSRRFYDSGFYYYFYIWGQGTLVTVSS
VL: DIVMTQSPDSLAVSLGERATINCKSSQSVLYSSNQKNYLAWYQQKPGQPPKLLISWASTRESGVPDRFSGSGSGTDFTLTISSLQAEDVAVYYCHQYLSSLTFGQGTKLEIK
notes: also called 2A3人源化抗体; 人源化抗体2A3
B7: Ustekinumab (antibody, V domains shown)
VH: EVQLVQSGAEVKKPGESLKISCKGSGYSFTTYWLGWVRQMPGKGLDWIGIMSPVDSDIRYSPSFQGQVTMSVDKSITTAYLQWNSLKASDTAMYYCARRRPGQGYFDFWGQGTLVTVSS
VL: DIQMTQSPSSLSASVGDRVTITCRASQGISSWLAWYQQKPEKAPKSLIYAASSLQSGVPSRFSGSGSGTDFTLTISSLQPEDFATYYCQQYNIYPYTFGQGTKLEIK

Key:
[1] = target: T1, 携带组氨酸标签的人IL-12(IL-12-His); assay: FACS, blocking of biotin-labelled IL-12-His binding to CHO-IL-12R cells
[2] = target: T1, 携带组氨酸标签的人IL-12(IL-12-His); assay: ELISA, IL-12-His coated on plate
[3] = target: T1, 携带组氨酸标签的人IL-12(IL-12-His); assay: ELISA, IL-12-His coated on plate; remark: listed apart in the source

Binder	IC50 [1]	EC50 [2]	binding result [3]
B1	0.323 µg/mL	0.0517 µg/mL	
B2			binds
B3			binds
B4			binds
B5			binds
B6	0.398 µg/mL	0.0571 µg/mL	
B7	0.224 µg/mL	0.0718 µg/mL	
